# From patent US20130209454A1
# What was measured:
# Experiment in all cases: cell-based or functional assay
# [1] = molecular target: Env of HIV-1 strain X1632_S2_B10 (HIV-1)
# [2] = molecular target: Env of HIV-1 strain R2184.c04 (HIV-1)
# [3] = molecular target: Env of HIV-1 strain 6545.v4.c1 (HIV-1)
# [4] = molecular target: HIV-1 Env of strain 211-9 (HIV-1)
# [5] = molecular target: HIV-1 Env of strain WITO4160.33 (HIV-1)
# [6] = molecular target: Env of HIV-1 strain REJO4541.67 (HIV-1)
# [7] = molecular target: Env of HIV-1 strain 3103.v3.c10 (HIV-1)
# [8] = molecular target: HIV-1 Env of strain 3103.v3.c10 (HIV-1)
# [9] = molecular target: Env of HIV-1 strain HIV-0013095-2.11 (HIV-1)
# [10] = molecular target: Env of HIV-1 strain CNE21 (HIV-1)
# [11] = molecular target: Env of HIV-1 strain ZM249M.PL1 (HIV-1)
# [12] = molecular target: HIV-1 Env of strain SC422661.8 (HIV-1)
# [13] = molecular target: HIV-1 Env of strain ZM249M.PL1 (HIV-1)
# [14] = molecular target: Env of HIV-1 strain C2101.c01 (HIV-1)
# [15] = molecular target: HIV-1 Env of strain TRO.11 (HIV-1)
# [16] = molecular target: HIV-1 Env of strain 1056_10_TA11_1826 (HIV-1)
# [17] = molecular target: HIV-1 Env of strain 231966.c02 (HIV-1)
# [18] = molecular target: Env of HIV-1 strain RHPA4259.7 (HIV-1)
# [19] = molecular target: HIV-1 Env of strain ZM247v1(Rev-) (HIV-1)
# [20] = molecular target: HIV-1 Env of strain Q23.17 (HIV-1)
# [21] = molecular target: Env of HIV-1 strain ZM233M.PB6 (HIV-1)
# [22] = molecular target: HIV-1 Env of strain CAP45.2.00.G3 (HIV-1)
# [23] = molecular target: HIV-1 Env of strain T255-34 (HIV-1)
# [24] = molecular target: HIV-1 Env of strain 231965.c01 (HIV-1)
# [25] = molecular target: Env of HIV-1 strain 6240_08_TA5_4622 (HIV-1)
# [26] = molecular target: Env of HIV-1 strain 6540.v4.c1 (HIV-1)
# [27] = molecular target: Env of HIV-1 strain X2088_c9 (HIV-1)
# [28] = molecular target: HIV-1 Env of strain HIV-16055-2.3 (HIV-1)
# [29] = molecular target: Env of HIV-1 strain 62357_14_D3_4589 (HIV-1)
# [30] = molecular target: HIV-1 Env of strain 235-47 (HIV-1)
# [31] = molecular target: HIV-1 Env of strain RHPA4259.7 (HIV-1)
# [32] = molecular target: HIV-1 Env of strain CNE52 (HIV-1)
# [33] = molecular target: HIV-1 Env of strain ZM53M.PB12 (HIV-1)
# [34] = molecular target: HIV-1 Env of strain C4118.c09 (HIV-1)
# [35] = molecular target: HIV-1 Env of strain CNE21 (HIV-1)
# [36] = molecular target: Env of HIV-1 strain Q259.d2.17 (HIV-1)
# [37] = molecular target: HIV-1 Env of strain PVO.4 (HIV-1)
# [38] = molecular target: HIV-1 Env of strain 1006_11_C3_1601 (HIV-1)
# [39] = molecular target: Env of HIV-1 strain 231965.c01 (HIV-1)
# [40] = molecular target: Env of HIV-1 strain BJOX015000.11.5 (HIV-1)
# [41] = molecular target: HIV-1 Env of strain BF1266.431a (HIV-1)
# [42] = molecular target: HIV-1 Env of strain 1054_07_TC4_1499 (HIV-1)
# [43] = molecular target: HIV-1 Env of strain QH0692.42 (HIV-1)
# [44] = molecular target: HIV-1 Env of strain 191084 B7-19 (HIV-1)
# [45] = molecular target: Env of HIV-1 strain 89-F1_2_25 (HIV-1)
# [46] = molecular target: Env of HIV-1 strain 3817.v2.c59 (HIV-1)
# [47] = molecular target: HIV-1 Env of strain 6952.v1.c20 (HIV-1)
# [48] = molecular target: Env of HIV-1 strain Ce704809221_1B3 (HIV-1)
# [49] = molecular target: Env of HIV-1 strain 263-8 (HIV-1)
# [50] = molecular target: HIV-1 Env of strain 3016.v5.c45 (HIV-1)
# [51] = molecular target: Env of HIV-1 strain 928-28 (HIV-1)
# Sequence of NIH45-46 (antibody) (VH): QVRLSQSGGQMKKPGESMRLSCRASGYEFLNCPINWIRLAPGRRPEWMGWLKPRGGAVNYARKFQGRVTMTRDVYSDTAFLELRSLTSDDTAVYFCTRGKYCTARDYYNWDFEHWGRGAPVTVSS
# Sequence of NIH45-46 (antibody) (V domain): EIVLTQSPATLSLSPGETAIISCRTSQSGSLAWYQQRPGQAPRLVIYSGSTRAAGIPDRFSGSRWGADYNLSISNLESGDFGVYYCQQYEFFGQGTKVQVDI
substance,measurement,setting,value
NIH45-46 (antibody),IC80,[1],> 50 µg/mL
same,IC80,[2],0.127 µg/mL
same,IC80,[3],> 50 µg/mL
same,"IC50, pseudovirus neutralization",[4],> 50 µg/mL
same,"IC50, pseudovirus neutralization",[5],0.06 µg/mL
same,IC80,[6],0.035 µg/mL
same,IC80,[7],6.15 µg/mL
same,"IC50, pseudovirus neutralization",[8],1.77 µg/mL
same,IC80,[9],0.03 µg/mL
same,IC80,[10],38.1 µg/mL
same,IC80,[11],0.053 µg/mL
same,"IC50, pseudovirus neutralization",[12],0.06 µg/mL
same,"IC50, pseudovirus neutralization",[13],0.017 µg/mL
same,IC80,[14],31.4 µg/mL
same,"IC50, pseudovirus neutralization",[15],1.61 µg/mL
same,"IC50, pseudovirus neutralization",[16],0.094 µg/mL
same,"IC50, pseudovirus neutralization",[17],1.64 µg/mL
same,IC80,[18],0.047 µg/mL
same,"IC50, pseudovirus neutralization",[19],2.94 µg/mL
same,"IC50, pseudovirus neutralization",[20],0.14 µg/mL
same,IC80,[21],14.2 µg/mL
same,"IC50, pseudovirus neutralization",[22],> 50 µg/mL
same,"IC50, pseudovirus neutralization",[23],0.71 µg/mL
same,"IC50, pseudovirus neutralization",[24],0.051 µg/mL
same,IC80,[25],1.55 µg/mL
same,IC80,[26],> 50 µg/mL
same,IC80,[27],> 50 µg/mL
same,"IC50, pseudovirus neutralization",[28],0.02 µg/mL
same,IC80,[29],0.19 µg/mL
same,"IC50, pseudovirus neutralization",[30],0.3 µg/mL
same,"IC50, pseudovirus neutralization",[31],0.017 µg/mL
same,"IC50, pseudovirus neutralization",[32],0.03 µg/mL
same,"IC50, pseudovirus neutralization",[33],0.175 µg/mL
same,"IC50, pseudovirus neutralization",[34],0.14 µg/mL
same,"IC50, pseudovirus neutralization",[35],6.01 µg/mL
same,IC80,[36],0.154 µg/mL
same,"IC50, pseudovirus neutralization",[37],0.12 µg/mL
same,"IC50, pseudovirus neutralization",[38],0.027 µg/mL
same,IC80,[39],0.126 µg/mL
same,IC80,[40],0.38 µg/mL
same,"IC50, pseudovirus neutralization",[41],0.01 µg/mL
same,"IC50, pseudovirus neutralization",[42],0.113 µg/mL
same,"IC50, pseudovirus neutralization",[43],0.72 µg/mL
same,"IC50, pseudovirus neutralization",[44],0.02 µg/mL
same,IC80,[45],> 50 µg/mL
same,IC80,[46],> 50 µg/mL
same,"IC50, pseudovirus neutralization",[47],0.02 µg/mL
same,IC80,[48],0.88 µg/mL
same,IC80,[49],0.1 µg/mL
same,"IC50, pseudovirus neutralization",[50],> 50 µg/mL
same,IC80,[51],0.64 µg/mL
